Results reported in patent publication US20140004120A1 (Daiichi Sankyo, published 2014).

Molecular target: T1, rsDR5 (recombinant human DR5 extracellular domain protein) (human, UniProt O14763 56-183)
T1 construct: the two may be offset
Test: gel filtration (Superdex 200) of the mixture of cB273 Fab fragment and rsDR5; complex then crystallized

B1: cB273 Fab fragment (Fab, V domains shown)
VH: EVQLQQSGPELVKPGASVKISCKASGYSFIGYFMNWMKQSHGKSLEWIGRFNPYNGDTFYNQKFKGKATLTVDKSSTTAHMELLSLTSEDSAVYFCGRSAYYFDSGGYFDYWGQGTTLTVSS
VL: DVVMTQTPLSLPVSLGDQASISCRSSQSLVHSNGNTYLHWYLQKPGQSPKLLIYKVSNRFSGVPDRFSGSGSGTDFTLKISRVEAEDLGIYFCSQSTHVPWTFGGGTKLEIKR
Question: Does B1 bind?
Answer: binds
